B1: humanized 5C1 antibody version H1L1 (antibody, V domains shown)
VH: QVQLVQSGAELKKPGSSVKVSCKASGYTFTNYWMNWVRQAPGQGLEWIGATNPNNGYTDYNQRFKDRATLTADKSTNTAYMELSSLRSEDTAVYYCARGGHLAYWGQGTLVTVSS
VL: DVVMTQSPLSLSVSPGEPASISCRSSQSLFHSKGNTYLHWYLQKPGQSPKLLINRVSNRFSGVPDRFSGSGSGTDFTLKISRVEAEDVGVYFCSQSAHVPWTFGGGTKVEIK
notes: Only variable regions are tied to this version
B2: humanized 5C1 antibody version H3L4 (antibody, V domains shown)
VH: QVQLVQSGAELKKPGSSVKVSCKASGYTFTNYWMNWVRQAPGQGLEWIGATNPNNGYTDYNQRFKDRATLTADKSTNTAYMELSSLRSEDTAVYFCASGGHLAYWGQGTLVTVSS
VL: DIVMTQSPLSLSVSPGEPASISCRSSQSLFHSKGNTYLHWYLQKPGQSPQLLIYRVSNRFSGVPDRFSGSGSGTDFTLKISRVEAEDVGVYYCSQSAHVPWTFGGGTKVEIK
notes: Only variable regions are tied to this version; also called h5C1_H3L4
B3: humanized 5C1 antibody version H4L4 (antibody, V domains shown)
VH: QVQLVQSGAELKKPGSSVKVSCKASGYTFTNYWMNWVRQAPGQGLEWIGATNPNNGYTDYNQRFKDRATLTADKSTNTAYMELSSLRSEDTAVYYCASGGHLAYWGQGTLVTVSS
VL: DIVMTQSPLSLSVSPGEPASISCRSSQSLFHSKGNTYLHWYLQKPGQSPQLLIYRVSNRFSGVPDRFSGSGSGTDFTLKISRVEAEDVGVYYCSQSAHVPWTFGGGTKVEIK
notes: Only variable regions are tied to this version; also called h5C1_H4L4
B4: humanized 5C1 antibody version H5L4 (antibody, V domains shown)
VH: QVQLVQSGAELKKPGSSVKVSCKASGYTFTNYWMNWVRQAPGQGLEWIGATNPNNGYTDYNQRFKDRVTITADKSTNTAYMELSSLRSEDTAVYYCASGGHLAYWGQGTLVTVSS
VL: DIVMTQSPLSLSVSPGEPASISCRSSQSLFHSKGNTYLHWYLQKPGQSPQLLIYRVSNRFSGVPDRFSGSGSGTDFTLKISRVEAEDVGVYYCSQSAHVPWTFGGGTKVEIK
notes: Only variable regions are tied to this version; also called h5C1_H5L4

Experiments:
[1] = molecular target: T1, wild-type human alpha-synuclein (human, UniProt P37840 1-140); assay: ELISA on alpha-synuclein, OD against ng/mL of antibody
[2] = molecular target: T1, wild-type human alpha-synuclein; assay: SPR (Biacore), antibody captured on anti-human IgG chip, alpha-synuclein flowed over, 1:1 model global fit
Protocol: An anti-human IgG CMS Biacore chip was prepared following the protocol supplied by GE Healthcare.
Data were collected and double reference subtracted to account for drift and a small amount of nonspecific binding. The data were analyzed using Biacore evaluation software using a 1:1 model and a global fit.

Row | Binder | binding result [1] | Kd [2] [nM]
1 | B1 | no binding (tested: 1000 ng/mL) | 
2 | B2 |  | 1240
3 | B3 |  | 601
4 | B4 |  | 1060

Source: patent US20170174777A1 (PROTHENA BIOSCIENCE, published 2017)
